The target in data set [1] is T1, APG00868.1-L16-nAPG07433.1 (truncated deaminase) (synthetic).
T1 chain: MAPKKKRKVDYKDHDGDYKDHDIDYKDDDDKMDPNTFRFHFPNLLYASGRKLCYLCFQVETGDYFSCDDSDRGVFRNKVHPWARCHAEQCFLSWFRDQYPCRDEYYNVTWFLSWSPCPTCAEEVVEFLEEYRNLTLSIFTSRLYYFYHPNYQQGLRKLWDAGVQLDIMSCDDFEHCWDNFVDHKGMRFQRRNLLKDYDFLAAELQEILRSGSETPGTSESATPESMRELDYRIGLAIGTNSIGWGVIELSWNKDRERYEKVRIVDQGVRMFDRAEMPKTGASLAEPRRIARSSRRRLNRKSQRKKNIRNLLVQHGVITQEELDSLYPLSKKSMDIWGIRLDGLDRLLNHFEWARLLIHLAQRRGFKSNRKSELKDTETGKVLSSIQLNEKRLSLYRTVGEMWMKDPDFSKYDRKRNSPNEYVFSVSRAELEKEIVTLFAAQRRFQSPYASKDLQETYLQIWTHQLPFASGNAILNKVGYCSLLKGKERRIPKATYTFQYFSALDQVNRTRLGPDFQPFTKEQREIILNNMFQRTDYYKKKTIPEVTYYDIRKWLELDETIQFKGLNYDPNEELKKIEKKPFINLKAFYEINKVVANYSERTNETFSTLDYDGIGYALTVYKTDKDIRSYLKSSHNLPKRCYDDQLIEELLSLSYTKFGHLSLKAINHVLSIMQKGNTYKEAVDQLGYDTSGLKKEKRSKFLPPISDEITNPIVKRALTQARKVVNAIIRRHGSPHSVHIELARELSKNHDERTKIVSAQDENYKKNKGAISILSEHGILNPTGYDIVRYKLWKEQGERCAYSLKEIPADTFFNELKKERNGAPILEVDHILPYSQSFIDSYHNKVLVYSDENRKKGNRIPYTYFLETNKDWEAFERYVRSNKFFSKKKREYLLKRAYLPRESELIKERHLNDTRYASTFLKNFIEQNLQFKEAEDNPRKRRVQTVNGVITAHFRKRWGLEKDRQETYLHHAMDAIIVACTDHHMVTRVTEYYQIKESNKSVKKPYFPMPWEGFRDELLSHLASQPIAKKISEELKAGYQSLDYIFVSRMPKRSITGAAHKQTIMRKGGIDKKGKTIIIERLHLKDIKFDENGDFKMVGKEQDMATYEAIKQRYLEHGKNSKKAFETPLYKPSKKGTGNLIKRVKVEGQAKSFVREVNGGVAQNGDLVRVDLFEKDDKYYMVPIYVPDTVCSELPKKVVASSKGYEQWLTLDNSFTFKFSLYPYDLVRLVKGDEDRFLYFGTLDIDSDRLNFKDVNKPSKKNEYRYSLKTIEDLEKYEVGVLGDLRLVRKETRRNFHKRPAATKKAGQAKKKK
Put plainly: cell_activity; HEK293FT; PAM SEQ 152. The following applies: tags: SV40 NLS, 3xFLAG N-term; nucleoplasmin NLS C-term. The procedure:
(§1) 500 ng of plasmid comprising an expression cassette comprising a coding sequence for each fusion protein shown in Table 3 and 500 ng of plasmid comprising an expression cassette encoding an sgRNA shown in Table 4 were co-transfected into HEK293FT cells at 75-90% confluency in 24-well plates using Lipofectamine 2000 reagent (Life Technologies). Cells were then incubated at […] for 72 h. Following incubation, genomic DNA was then extracted using NucleoSpin 96 Tissue (Macherey-Nagel) following the manufacturer's protocol. The genomic region flanking the targeted genomic site was PCR amplified using the primers in Table 4 and products were purified using ZR-96 DNA Clean and Concentrator (Zymo Research) following the manufacturer's protocol. The purified PCR products were then sent for Next Generation Sequencing on Illumina MiSeq (2×250). Results were analyzed for INDEL formation or introduction of % specific cytosine mutations.
(§2) The position of each nucleotide in the target sequence was determined. “C17” indicates, for example, a cytosine at position 17 of the target sequence. The position of each nucleotide in the target sequence was determined by numbering the first nucleotide in the target sequence closest to the PAM as position 1, and the position number increases in the 3′ direction away from the PAM sequence.

Data set [2] deals with APG05840-L16-nAPG07433.1 (synthetic). Put plainly: cell_activity; HEK293FT; PAM SEQ 152. To be noted: tags: SV40 NLS, 3xFLAG N-term; nucleoplasmin NLS C-term. The method, then: as §1, §2

B1: SGN001101 sgRNA ; SGN001101 target (ssRNA ; dsDNA)
RNA: AUAUUUUCUUUAAUGGUGCCAGGCAGUCAUAGUUCCAUUAAAGCCAAAAGUGGCUUUGAUGUUUCUAUGAUAAGGGUUUCGACCCGUGGCGUCGGGGAUCGCCUGCCCAUUGAAAUGGGCUUCUCCCCAU
DNA 1: ATATTTTCTTTAATGGTGCCAGGCA
DNA 2: TGCCTGGCACCATTAAAGAAAATAT
Turning to B1, the activity in data set [1] amounted to 20.4 % mutated reads; in data set [2], 24.3 % mutated reads.

B2: SGN000929 sgRNA ; SGN000929 target (ssRNA ; dsDNA)
RNA: AUCUGGAGGGAACUUACAGCAUAUGGUCAUAGUUCCAUGAAAGCCAAAAGUGGCUUUGAUGUUUCUAUGAUAAGGGUUUCGGCCCGUGGCGUCGGGGAUCGCCUGCCCAUUCCGAUGGGCUUCUCCCCAUUUAUU
DNA 1: ATCTGGAGGGAACTTACAGCATATG
DNA 2: CATATGCTGTAAGTTCCCTCCAGAT
For B2, the activity in data set [1] was determined as 14.6 % mutated reads; in data set [2], 27.7 % mutated reads.

B3: SGN000169 sgRNA ; SGN000169 target (ssRNA ; dsDNA)
RNA: CACAUCUCGAGCAAGACGUUGUCAUAGUUCCAUUAAAGCCAAAAGUGGCUUUGAUGUUUCUAUGAUAAGGGUUUCGACCCGUGGCGUCGGGGAUCGCCUGCCCAUUGAAAUGGGCUUCUCCCCAUUUAUU
DNA 1: CACATCTCGAGCAAGACGTT
DNA 2: AACGTCTTGCTCGAGATGTG
In turn, B3 gave an activity in data set [1] of 22.4 % mutated reads.

B4: SGN000930 sgRNA ; SGN000930 target (ssRNA ; dsDNA)
RNA: GAACAACUCAAAUGGAAAUGAAUAUGUCAUAGUUCCAUGAAAGCCAAAAGUGGCUUUGAUGUUUCUAUGAUAAGGGUUUCGGCCCGUGGCGUCGGGGAUCGCCUGCCCAUUCCGAUGGGCUUCUCCCCAUUUAUU
DNA 1: GAACAACTCAAATGGAAATGAATAT
DNA 2: ATATTCATTTCCATTTGAGTTGTTC
In turn, B4 had an activity in data set [2] of 22.4 % mutated reads.
